How the values were obtained:
[1] = target: FcRn (neonatal Fc receptor) immobilised in the FcRn binding affinity measurement (UniProt P55899); test: BLI
[2] = target: human neonatal Fc receptor (FcRn heavy chain FCGRT with B2M) on MDCK-hFcRn cells (human) (UniProt P55899); test: flow cytometry on cells

Row | Substance | Kd [1] | MFI (binding to MDCK-hFcRn cells) [2] | MFI (cell binding to MDCK-hFcRn cells) [2]
1 | Adalimumab (antibody) | 1180 nM | 183 MFI | –
2 | Basiliximab (antibody) | – | 203 MFI | –
3 | Emicizumab (bispecific antibody) | 1230 nM | – | –
4 | Infliximab (antibody) | – | 128 MFI | –
5 | Ocrelizumab (antibody) | – | 101 MFI | –
6 | Rituximab (antibody) | 460 nM | – | –
7 | anti-herpes simplex virus glycoprotein D (gD)-YTE antibody | – | – | 1150 MFI
